Assay results: publication PMC9569855 (International Journal of Molecular Sciences, 2022)

Target: SARS-CoV-2 wild type RBD (319-541aa) (SARS-CoV-2, UniProt P0DTC2)
Assay: SPR
Conditions: both partners purified

B1: Bamlanivimab (antibody, V domains shown)
VH: QVQLVQSGAEVKKPGSSVKVSCKASGGTFSNYAISWVRQAPGQGLEWMGRIIPILGIANYAQKFQGRVTITADKSTSTAYMELSSLRSEDTAVYYCARGYYEARHYYYYYAMDVWGQGTAVTVSS
VL: not shown
For B1, the Kd was 1.4 nM.
